Results from patent US20150010928A1, “MEANS AND METHODS FOR ASSESSING AN ENDOCRINE DISEASE OR DISORDER” (priority 2012, published 2015).
Marks after values point to notes of the source that are not given here.

What was measured:
[1] = tested on: male rats; assay: Plasma metabolite profiling (GC-MS, LC-MS, SPE-LC-MS) in male rats dosed once daily over 28 days (OECD 407); type: in vivo, rat; settings: male rats, plasma, high dose
Outline: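 Metabolites were measured by GC-MS (derivatised) and reversed-phase LC-MS, with steroids by online SPE-LC-MS, in plasma drawn from fasted rats on days 7, 14 and 28 of once-daily dosing (5/sex/group). Values are ratios versus sex-matched untreated controls, normalized to pool samples, with Welch-test p-values.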

[2] = tested on: female rats; assay: Plasma metabolite profiling (GC-MS, LC-MS, SPE-LC-MS) in female rats dosed once daily over 28 days (OECD 407); type: in vivo, rat; settings: high dose
Description: Each dose group in the studies consisted of five rats per sex. Additional groups of each 5 male and female animals served as controls. […] All animals of the animal population were kept under the same constant temperature (20-24±3° C.) and the same constant humidity (30-70%). The animals of the animal population were fed ad libitum. The food to be used was essentially free of chemical or microbial contaminants. Drinking water was also offered ad libitum. Accordingly, the water was free of chemical and microbial contaminants as laid down in the European Drinking Water Directive 98/83/EG. The illumination period was 12 hours light followed by 12 hours darkness (12 hours light, from 6:00 to 18:00, and 12 hours darkness, from 18:00 to 6:00). […] The test substances (compounds) in the Tables 1 to 17 below were dosed and administered as described in the Table 18.
In the morning of day 7, 14, and 28, blood was taken from the retroorbital venous plexus from fasted anaesthetized animals. From each animal, 1 ml of blood was collected with EDTA as anticoagulant. The samples were centrifuged for generation of plasma. All plasma samples were covered with a N2 atmosphere and then stored at −80° C. until analysis.
For mass spectrometry-based metabolite profiling analyses plasma samples were extracted and a polar and a non-polar (lipid) fraction was obtained. For GC-MS analysis, the non-polar fraction was treated with methanol under acidic conditions to yield the fatty acid methyl esters. Both fractions were further derivatised with O-methyl-hydroxyamine hydrochloride and pyridine to convert Oxogroups to O-methyloximes and subsequently with a silylating agent before analysis. In LC-MS analysis, both fractions were reconstituted in appropriate solvent mixtures. HPLC was performed by gradient elution on reversed phase separation columns. Mass spectrometric detection which allows target and high sensitivity MRM (Multiple Reaction Monitoring) profiling in parallel to a full screen analysis was applied as described in WO2003073464.
Steroids and their metabolites were measured by online SPE-LC-MS (Solid phase extraction-LC-MS).
Following comprehensive analytical validation steps, the data for each analyte were normalized against data from pool samples. These samples were run in parallel through the whole process to account for process variability. The significance of treatment group values specific for sex, treatmentduration and metabolite was determined by comparing means of the treated groups to the means of the respective untreated control groups using WELCH-test and quantified with treatment ratios versus control and p-values.
The identification of the most important biomarkers per toxicity pattern was done by a ranking of the analytes in the tables below. Therefore the metabolic changes in reference treatments of a given pattern (shown in the table) were compared with changes of the same metabolite in other unrelated treatments. […] The maximum absolute value of the respective TVALUE was taken to indicate the most important metabolite for the pattern.

With “ACTH: adrenocorticotropin (ACTH) produced in the adenohypophysis of the pituitary gland (SYSMEHFRWGKPVGKKRRPVKVYPNGAEDESAEAFPLEF; Corticotropin; UniProt P01189 138-176, looked up)” the “3,4-Dihydroxyphenylalanine (DOPA), ratio versus control” value ([1]; day 28) was 0.86 *, the “3-Hydroxybutyrate, ratio versus control” value ([1]; day 28) was 0.65 * and the “18-Hydroxy-11-deoxycorticosterone, ratio versus control” value ([1]; day 28) was 0.43 *. The “21-Hydroxyprogesterone (11-Deoxycorticosterone), ratio versus control” value ([1]; day 28) was 0.18 *, the “Biotin, ratio versus control” value ([1]; day 28) was 0.64 * and the “Citrate, ratio versus control” value ([1]; day 28) was 0.82 *. For the same molecule, the “Corticosterone, ratio versus control” value ([1]; day 28) was 0.42 *, the “Ketoleucine, ratio versus control” value ([1]; day 28) was 0.81 * and the “Lysophosphatidylethanolamine (C22:5), ratio versus control” value ([1]; day 28) was 1.22 *. For the same molecule, the “Phosphatidylcholine No 04, ratio versus control” value ([1]; day 28) was 0.8 *, the “Progesterone, ratio versus control” value ([1]; day 28) was 0.14 * and the “Urea, ratio versus control” value ([1]; day 28) was 1.28 *. For the same molecule, the “3-Hydroxybutyrate, ratio versus control” value ([2]; female rats, plasma, day 28) was 0.85 *, the “5-Oxoproline, ratio versus control” value ([2]; female rats, plasma, day 28) was 1.05 * and the “18-Hydroxy-11-deoxycorticosterone, ratio versus control” value ([2]; female rats, plasma, day 28) was 0.69 *. For the same molecule, the “21-Hydroxyprogesterone (11-Deoxycorticosterone), ratio versus control” value ([2]; female rats, plasma, day 28) was 0.31 *, the “Biotin, ratio versus control” value ([2]; female rats, plasma, day 28) was 0.7 * and the “Choline plasmalogen No 03, ratio versus control” value ([2]; female rats, plasma, day 28) was 0.77 *. For the same molecule, the “Citrate, ratio versus control” value ([2]; female rats, plasma, day 28) was 0.92 *, the “Corticosterone, ratio versus control” value ([2]; female rats, plasma, day 28) was 0.67 * and the “Ketoleucine, ratio versus control” value ([2]; female rats, plasma, day 28) was 0.76 *. The “Lactate, ratio versus control” value ([2]; female rats, plasma, day 28) was 0.68 *, the “Lysophosphatidylcholine (C18:2), ratio versus control” value ([2]; female rats, plasma, day 28) was 1.06 * and the “Lysophosphatidylcholine (C20:4), ratio versus control” value ([2]; female rats, plasma, day 28) was 1.11 *. For the same molecule, the “Malate, ratio versus control” value ([2]; female rats, plasma, day 28) was 0.76 *, the “Mannose, ratio versus control” value ([2]; female rats, plasma, day 28) was 1.04 * and the “TAG No 059, ratio versus control” value ([2]; female rats, plasma, day 28) was 1.62 *. The “Tyrosine, ratio versus control” value ([2]; female rats, plasma, day 28) was 1.26 * and the “alpha-Tocopherol, ratio versus control” value ([2]; female rats, plasma, day 28) was 0.95 *.
In the case of `C#C[C@]1(OC(C)=O)CC[C@H]2[C@@H]3CCC4=CC(=O)CC[C@@H]4[C@H]3CC[C@@]21C` [Norethindrone acetate], the “Alanine, ratio versus control” value ([1]; day 7) is reported as 0.88 *, the “Androstenedione, ratio versus control” value ([1]; day 7) is reported as 0.42 * and the “Cholesterol, ratio versus control” value ([1]; day 7) is reported as 0.28 *. For the same molecule, the “Glycine, ratio versus control” value ([1]; day 7) was 0.86 *, the “Heptadecanoic acid (C17:0), ratio versus control” value ([1]; day 7) was 0.56 * and the “Testosterone, ratio versus control” value ([1]; day 7) was 0.59 *. The “Threonine, ratio versus control” value ([1]; day 7) was 0.88 *, the “Uric acid, ratio versus control” value ([1]; day 7) was 0.7 * and the “alpha-Tocopherol, ratio versus control” value ([1]; day 7) was 0.32 *. For the same molecule, the Cholesterol ([2]; f7, Table 14a) was 0.17 *, the “Choline plasmalogen No 02” value ([2]; f7, Table 14a) was 0.3 * and the “Lignoceric acid (C24:0)” value ([2]; f7, Table 14a) was 0.27^. For the same molecule, the “Sphingomyelin (d18:1, C16:0)” value ([2]; f7, Table 14a) was 0.12 *, the “Sphingomyelin (d18:2, C16:0)” value ([2]; f7, Table 14a) was 0.19 * and the “erythro-Sphingosine (d18:1)” value ([2]; f7, Table 14a) was 0.03 *.
